3 molecules from article PMC6787100, “Endophyte Bacillus subtilis evade plant defense by producing lantibiotic subtilomycin to mask self-produced flagellin” (Communications Biology, 2019) can be followed below.

Usually Kd stands for the equilibrium constant for the complex coming apart. Low values mean higher affinity, high ones lower affinity.

The experiment concerns the target T1, lantibiotic subtilomycin (Bacillus subtilis BSn5, lantibiotic; ApnB carries out the essential dehydration reaction of its biosynthesis; the modified residues are not listed).
T1 construct: subtilomycin, the lantibiotic made from the structural peptide encoded by apnA of Bacillus subtilis BSn5; exact molecular weight 3234.36 Da; Purified subtilomycin holds oligomers (trimers, tetramers, pentamers); source: B. subtilis BSn5 ∆hag mutant, 30% ammonium sulfate precipitate of culture supernatant, purified by prep-HPLC; also native in Apn5 (30% ammonium sulfate precipitate of BSn5 culture …)
As to the kind of experiment: MST; protein labelled with Cy5-NHS ester at fixed concentration, serial 2x dilutions of unlabelled subtilomycin (1 mM set as highest; 500 μM highest final in the legend); PBS pH 8.0; MST power 20%, LED power 60%; Monolith NT.115; constants called ambiguous, based on total subtilomycin concentration. Particulars: both partners purified.

B1: ∆Hag (flg22), Hag with the flg22 region deleted (domain or fragment)
chain: not shown
For the molecule B1, binding was put at a Kd of 66.4 ± 9.11 µM.

B2: 6× His-tagged Hag protein (natural protein)
chain: not shown
modifications: labelled with Cy5-NHS ester (in the MST assay only)
In turn, B2 returned a Kd of 18.8 ± 4.15 µM.

On to EKLSSGLRINRAGDDAAGLAIS [flg22 (Bs), synthetic flg22 peptide of B. subtilis Hag], for which the Kd worked out at 169 ± 10.4 µM.
